Data on one molecule can be found in paper PMC3103399 (Molecular Biology of the Cell, 2011).

In the experiment the target is T1, GST-nephrin-CD (residues 1102–1252) (rat, UniProt Q9R044 1102-1252).
T1 sequence (looked up): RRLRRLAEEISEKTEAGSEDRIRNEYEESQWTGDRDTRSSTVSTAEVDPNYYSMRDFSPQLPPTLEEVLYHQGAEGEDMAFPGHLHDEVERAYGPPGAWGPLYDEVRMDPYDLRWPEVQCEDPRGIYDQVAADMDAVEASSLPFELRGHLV
The experiment is described as follows: pull-down.

Non-standard residues stand in square brackets, D forms with d. No end group written: not given here. pY = N[C@@H](Cc1ccc(OP(=O)(O)O)cc1)C(=O)O

For CLASPA[pY]LSLSSE [phosphorylated TRPC6 Y284 peptide], the binding result is reported as “binds”.
